Assay results taken from US20250326860A1 (ADAGENE PTE, published 2025).
Numbering of substitutions follows the chain as printed. Names may count otherwise.

Key:
[1] = target: T1, human CD3 on cells (Jurkat cells, human T cells) (human, UniProt P07766 23-207); experiment: flow cytometry on Jurkat cells, anti-human IgG AF647 secondary antibody
T1 construct: whole, on cells
Protocol: The ability of the parental huOKT3 anti-CD3 antibody TAC2245 and the activatable huOKT3 anti-CD3 antibody TY23104 to bind Jurkat cells was measured in a dose-dependent binding assay.
The Jurkat cells were thawed, washed and cultured in an incubator. 4×10⁵ Jurkat cells/well were aliquoted into 96-well plate and incubated with parental huOKT3 TAC2245 or activatable huOKT3 for 1 hour at 4° C. After centrifugation and washing, Jurkat cells were further incubated with the secondary antibody anti-human IgG AF647 for 30 minutes at 4° C. After centrifugation and washing, the Jurkat cells labelled with antibodies were re-suspended in 2% FBS DPBS and analyzed by FACS.

[2] = target: T2, cynomolgus monkey CD3 on T cells (cynomolgus monkey, UniProt Q95LI5 22-198); experiment: flow cytometry, monkey CD3+ T cells
T2 construct: whole, on cells
Description: (§1) Human PBMCs were freshly isolated from the blood of healthy donors by density gradient centrifugation using Histopaque-1077 (Sigma). Human CD3+ T cells were further isolated from PBMCs using the Human T Cell Enrichment Kit (Stem Cell Technologies). Monkey PBMCs were isolated from a naïve cynomolgus monkey by density gradient centrifugation using Histopaque-1077 (Sigma). Monkey CD3+ T cells were isolated from PBMCs using the Pan T Cell Isolation Kit Non-Human Primate (Miltenyi Biotec). Purified human or monkey CD3+ T cells were stained with the testing antibodies as the primary antibody and the APC-labelled anti-human-Fc antibody (BioLegend) as the secondary antibody. After washing, the cells were analyzed on the CytoFLEX flow cytometer (Beckman Coulter) and the data was analyzed by FlowJo software.

[3] = target: T1, human CD3 on cells (Jurkat cells, human …); experiment: flow cytometry, human CD3+ T cells
Description: as §1

[4] = target: T3, cynomolgus monkey CD20 on B cells (cynomolgus monkey, UniProt M4ZHZ6 1-297); experiment: flow cytometry, monkey B cells
T3 construct: whole, on cells
T3 sequence: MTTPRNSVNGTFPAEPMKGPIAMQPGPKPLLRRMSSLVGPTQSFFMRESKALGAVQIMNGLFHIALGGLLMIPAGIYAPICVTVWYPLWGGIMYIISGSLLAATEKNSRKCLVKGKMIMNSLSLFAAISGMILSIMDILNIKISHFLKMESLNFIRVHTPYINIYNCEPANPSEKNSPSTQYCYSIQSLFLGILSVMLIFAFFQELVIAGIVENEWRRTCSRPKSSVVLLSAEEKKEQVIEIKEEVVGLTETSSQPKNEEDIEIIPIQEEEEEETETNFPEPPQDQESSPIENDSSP
Description: (§2) Human and monkey PBMCs were isolated as mentioned above. Human B cells were further isolated from PBMCs using the EasySep™ Human B Cell Isolation Kit (Stem Cell Technologies). Monkey B cells were isolated from PBMCs using the Non-Human B Primate Cell Isolation Kit (Stem Cell Technologies). Purified human or monkey B cells were stained with the testing antibodies as the primary antibody and the APC-labelled anti-human-Fc antibody (BioLegend) as the secondary antibody. After washing, the cells were analyzed on the CytoFLEX flow cytometer (Beckman Coulter) and the data was analyzed by FlowJo software.

[5] = target: T4, human CD20 on cells (human B cells; Raji, SU-DHL-8, SU-DHL-4, A3KAW, NAMALWA) (human, UniProt P11836 1-297); experiment: flow cytometry, SU-DHL-8 cells
T4 construct: whole, on cells
T4 sequence (looked up): T3 sequence with P25S, L31F, A51T, V157A, R217K, S226N, V227I, V239T
Protocol: (§3) Raji, SU-DHL-8, SU-DHL-4, A3KAW and NAMALWA were B-cell lymphoma cell lines with various CD20 expression levels on cell surface. Briefly, the test antibodies were serial diluted and were incubated with the tumor cells on ice. After washing, the cells were subsequently incubated with the APC-labelled anti-human-Fc secondary antibody (BioLegend) on ice. The cells were then washed with PBS prior to analysis by the CytoFLEX flow cytometer (Beckman Coulter). The data was analyzed by FlowJo software.

[6] = target: T4, human CD20 on cells (human B cells; …); experiment: flow cytometry, A3KAW cells
Protocol: as §3

[7] = target: T4, human CD20 on cells (human B cells; …); experiment: flow cytometry, human B cells
Description: as §2

[8] = target: T4, human CD20 on cells (human B cells; …); experiment: flow cytometry, NAMALWA cells
Protocol: as §3

[9] = target: T4, human CD20 on cells (human B cells; …); experiment: flow cytometry, Raji cells
Protocol: as §3

[10] = target: T4, human CD20 on cells (human B cells; …); experiment: flow cytometry, SU-DHL-4 cells
Protocol: as §3

[11] = target: T1, human CD3 on cells (Jurkat cells, human …); experiment: cell-based or functional assay

T1 sequence (P07766 23-207): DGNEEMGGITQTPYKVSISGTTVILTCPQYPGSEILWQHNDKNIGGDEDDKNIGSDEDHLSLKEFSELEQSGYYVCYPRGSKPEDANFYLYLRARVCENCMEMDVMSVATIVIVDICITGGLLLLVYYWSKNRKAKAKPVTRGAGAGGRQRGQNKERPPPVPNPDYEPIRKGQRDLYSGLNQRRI
T2 sequence (Q95LI5 22-198): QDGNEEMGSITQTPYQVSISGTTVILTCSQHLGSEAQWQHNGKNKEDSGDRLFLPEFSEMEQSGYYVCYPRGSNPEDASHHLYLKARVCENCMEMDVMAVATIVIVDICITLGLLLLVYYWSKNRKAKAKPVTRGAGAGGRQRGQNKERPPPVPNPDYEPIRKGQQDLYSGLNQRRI

B1: TY23104 (antibody, human IgG4 S228P, kappa)
light: EVGSYAYHDDDCPDDDYDCASSGRSAGGGGTPLGLAGSGGSDIQMTQSPSSLSASVGDRVTITCSASSSVSYMNWYQQTPGKAPKRWIYDTSKLASGVPSRFSGSGSGTDYTFTISSLQPEDIATYYCQQWSSNPFTFGQGTKLQITRTVAAPSVFIFPPSDEQLKSGTASVVCLLNNFYPREAKVQWKVDNALQSGNSQESVTEQDSKDSTYSLSSTLTLSKADYEKHKVYACEVTHQGLSSPVTKSFNRGEC
heavy: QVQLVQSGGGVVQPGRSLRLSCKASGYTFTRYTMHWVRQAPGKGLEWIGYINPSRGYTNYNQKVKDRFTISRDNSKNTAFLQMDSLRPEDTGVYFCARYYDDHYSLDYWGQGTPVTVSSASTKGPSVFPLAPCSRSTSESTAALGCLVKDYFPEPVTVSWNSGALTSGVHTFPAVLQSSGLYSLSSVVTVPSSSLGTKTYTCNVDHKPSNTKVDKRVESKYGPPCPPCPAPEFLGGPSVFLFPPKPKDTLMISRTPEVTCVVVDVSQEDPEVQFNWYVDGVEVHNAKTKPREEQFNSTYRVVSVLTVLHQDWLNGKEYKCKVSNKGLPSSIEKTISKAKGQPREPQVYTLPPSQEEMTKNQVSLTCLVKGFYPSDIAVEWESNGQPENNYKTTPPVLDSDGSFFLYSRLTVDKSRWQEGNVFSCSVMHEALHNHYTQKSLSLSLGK
notes: also called anti-CD3 SAFEbody
EC50 (read off the curve) [1]: ~70 nM

B2: TAC2245 (antibody, V domains shown)
VH: QVQLVQSGGGVVQPGRSLRLSCKASGYTFTRYTMHWVRQAPGKGLEWIGYINPSRGYTNYNQKVKDRFTISRDNSKNTAFLQMDSLRPEDTGVYFCARYYDDHYSLDYWGQGTPVTVSS
VL: DIQMTQSPSSLSASVGDRVTITCSASSSVSYMNWYQQTPGKAPKRWIYDTSKLASGVPSRFSGSGSGTDYTFTISSLQPEDIATYYCQQWSSNPFTFGQGTKLQIT
notes: also called huOKT3-C114S-gLC; parental huOKT3 anti-CD3 antibody
EC50 (read off the curve) [1]: ~0.3 nM

B3: TY25715 (bispecific antibody, human IgG1, kappa, N297A)
light: QIVLSQSPAILSASPGEKVTMTCRASSSVSYIHWFQQKPGKSPKPWIYATSNLASGVPVRFSGSGSGTSYSLTISRVEAEDAATYYCQQWTSNPPTFGGGTKVEIKRTVAAPSVFIFPPSDEQLKSGTASVVCLLNNFYPREAKVQWKVDNALQSGNSQESVTEQDSKDSTYSLSSTLTLSKADYEKHKVYACEVTHQGLSSPVTKSFNRGEC
heavy: EVQLVQSGAEVKKPGSSVKVSCKASGYTFTSYNMHWVRQAPGKGLEWIGAIYPGSGDTSYNQKFKGRVTITADKSTSTAYMELSSLRSEDTAVYYCARSTYYGGDWYFNVWGQGTLVTVSSASTKGPSVFPLAPSSKSTSGGTAALGCLVKDYFPEPVTVSWNSGALTSGVHTFPAVLQSSGLYSLSSVVTVPSSSLGTQTYICNVNHKPSNTKVDKKVEPKSCDKTHTCPPCPAPELLGGPSVFLFPPKPKDTLMISRTPEVTCVVVDVSHEDPEVKFNWYVDGVEVHNAKTKPREEQYASTYRVVSVLTVLHQDWLNGKEYKCKVSNKALPAPIEKTISKAKGQPREPQVYTLPPSRKKLTKNQVKLTCLVKGFYPSDIAVEWESNGQPENNYKTTPPVLDCDGSFFLYSKLTVDKSRWQQGNVFSCSVMHEALHNHYTQKSLSLSPGK
chain: EAVVTQEPSLTVSPGGTVTLTCGSSTGAVTTSNYPNWVQQKPGQAPRGLIGGTNKRAPGTPARFSGSLLGGKAALTLSGAQPEDEAEYYCALWYSDLWVFGGGTKLTVLGGGGSGGGGSGGGGSGGGGSEVQLVESGGGLVQPGGSLRLSCAASGFTFSTYAINWVRQAPGKGLEWVSRIRSKYNNYATYYAESVKDRFTISRDDSKNTLYLQINSLRAEDTAVYYCVRHGNFGTSYVSWFAYWGQGTLVTVSSEPKSSDKTHTCPPCPAPELLGGPSVFLFPPKPKDTLMISRTPEVTCVVVDVSHEDPEVKFNWYVDGVEVHNAKTKPREEQYASTYRVVSVLTVLHQDWLNGKEYKCKVSNKALPAPIEKTISKAKGQPREPQVYTDPPSRDELTKNQVSLTCLVDGFYPSDIAVEWESNGQPENCYKTTPPVLDSDGSFFLYSKLTVDKSRWQQGNVFSCSVMHEALHNHYTQDSLSLSPGK
notes: also called parental CD20xCD3 bispecific antibody of TY25716
EC50 [2]: 20.7 nM | max MFI [2]: 1120 MFI | EC50 [3]: 28.8 nM | max MFI [3]: 2260 MFI

B4: TY25716 (bispecific antibody, human IgG1, kappa, N297A)
light: B3 light
heavy: B3 heavy
chain: EVGSYPYDDPDCPSHESDCDQGGGPLGLAGGSEAVVTQEPSLTVSPGGTVTLTCGSSTGAVTTSNYPNWVQQKPGQAPRGLIGGTNKRAPGTPARFSGSLLGGKAALTLSGAQPEDEAEYYCALWYSDLWVFGGGTKLTVLGGGGSGGGGSGGGGSGGGGSEVQLVESGGGLVQPGGSLRLSCAASGFTFSTYAINWVRQAPGKGLEWVSRIRSKYNNYATYYAESVKDRFTISRDDSKNTLYLQINSLRAEDTAVYYCVRHGNFGTSYVSWFAYWGQGTLVTVSSEPKSSDKTHTCPPCPAPELLGGPSVFLFPPKPKDTLMISRTPEVTCVVVDVSHEDPEVKFNWYVDGVEVHNAKTKPREEQYASTYRVVSVLTVLHQDWLNGKEYKCKVSNKALPAPIEKTISKAKGQPREPQVYTDPPSRDELTKNQVSLTCLVDGFYPSDIAVEWESNGQPENCYKTTPPVLDSDGSFFLYSKLTVDKSRWQQGNVFSCSVMHEALHNHYTQDSLSLSPGK
EC50 [4]: 13.5 nM | max MFI [4]: 28100 MFI | EC50 [5]: 37.2 nM | Max MFI [5]: 5280 MFI | EC50 [6]: 220 nM | Max MFI [6]: 967000 MFI | EC50 [7]: 14.5 nM | max MFI [7]: 50000 MFI | EC50 [8]: 162 nM | Max MFI [8]: 647000 MFI | EC50 [9]: 28 nM | Max MFI [9]: 23500 MFI | EC50 [10]: 14.6 nM | Max MFI [10]: 2.48e+06 MFI

B5: TY23118 (antibody)
light: EVGSYDADDPDCPADNNHCHYSGRSAGGGGTPLGLAGSGGSQAVVTQEPSLTVSPGGTVTLTCGSSTGAVTTSNYANWVQQKPGQAPRGLIGGTNKRAPGVPARFSGSLLGGKAALTLSGAQPEDEAEYYCALWYSNLWVFGGGTKLTVLRTVAAPSVFIFPPSDEQLKSGTASVVCLLNNFYPREAKVQWKVDNALQSGNSQESVTEQDSKDSTYSLSSTLTLSKADYEKHKVYACEVTHQGLSSPVTKSFNRGEC
heavy: not shown
Jurkat NFAT reporter assay EC50 [11]: 7.9 nM | Masking efficiency (Jurkat NFAT reporter assay) [11]: 419 fold

B6: TY23110 (antibody)
light: B5 light with D6A, A7P, D8H, N16P, N17P, H18S, H20Y, Y21P
heavy: not shown
Jurkat NFAT reporter assay EC50 [11]: 3.6 nM | Masking efficiency (Jurkat NFAT reporter assay) [11]: 191 fold

B7: TY23115 (antibody)
light: B5 light with D6P, A7Y, A14S, D15H, N16D, N17S, H18D, H20D, Y21N
heavy: not shown
Jurkat NFAT reporter assay EC50 [11]: 7.7 nM | Masking efficiency (Jurkat NFAT reporter assay) [11]: 409 fold
